The values that follow come from US5856155, “Compounds and related methods for modulating potassium ion channels and assays for such compounds” (The Johns Hopkins University School Of Medicine, dated 1999).

To fix the notation:
T1: NH2-terminal domain of rshal1 (a.a. 1-228) (Kv4.2) (rat, UniProt Q63881)
T1 sequence: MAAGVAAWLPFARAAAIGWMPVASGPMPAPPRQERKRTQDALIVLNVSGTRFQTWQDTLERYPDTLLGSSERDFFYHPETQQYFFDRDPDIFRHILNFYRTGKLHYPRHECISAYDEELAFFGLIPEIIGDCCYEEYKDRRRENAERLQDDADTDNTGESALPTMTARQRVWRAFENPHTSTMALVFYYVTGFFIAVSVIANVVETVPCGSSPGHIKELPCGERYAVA

T2: NH2-terminal domain of NGK2b (a.a. 1-180) (Kv3.1) (rat, UniProt P25122)
T2 sequence: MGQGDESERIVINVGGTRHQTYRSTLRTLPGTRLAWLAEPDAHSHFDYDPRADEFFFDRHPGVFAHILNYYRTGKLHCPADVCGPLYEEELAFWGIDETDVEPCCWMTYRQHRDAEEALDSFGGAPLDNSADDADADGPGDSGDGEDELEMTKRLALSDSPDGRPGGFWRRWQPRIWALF

T3: NH2-terminal domain of Drosophila Shal2 (Kv4 subfamily) (Drosophila, UniProt P17971-1)
T3 sequence: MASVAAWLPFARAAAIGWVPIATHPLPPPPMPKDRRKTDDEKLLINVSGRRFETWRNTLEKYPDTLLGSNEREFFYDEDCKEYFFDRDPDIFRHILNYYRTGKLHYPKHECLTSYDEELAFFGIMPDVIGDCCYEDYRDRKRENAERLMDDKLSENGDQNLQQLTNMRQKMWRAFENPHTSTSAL

T4: NH2-terminal domain of DRK1 (a.a. 1-182) (Kv2.1) (rat, UniProt P15387)
T4 sequence: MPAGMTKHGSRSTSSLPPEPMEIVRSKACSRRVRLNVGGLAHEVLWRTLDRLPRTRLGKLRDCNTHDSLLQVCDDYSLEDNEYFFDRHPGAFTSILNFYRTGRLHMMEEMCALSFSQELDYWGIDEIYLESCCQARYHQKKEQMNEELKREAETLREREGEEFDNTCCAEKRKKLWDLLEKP

T5: NH2-terminal domain of Drosophila Shaw2 (Kv3 subfamily) (Drosophila, UniProt P17972)
T5 sequence: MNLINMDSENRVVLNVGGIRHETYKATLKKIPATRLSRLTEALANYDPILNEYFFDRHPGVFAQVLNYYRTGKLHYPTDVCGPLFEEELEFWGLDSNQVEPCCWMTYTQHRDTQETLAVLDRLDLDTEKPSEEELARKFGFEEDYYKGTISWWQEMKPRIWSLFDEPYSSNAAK

B1: Kvβ2 (a.a. 1-367) (other)
chain: MYPESTTGSPARLSLRQTGSPGMIYSTRYGSPKRQLQFYRNLGKSGLRVSCLGLGTWVTFGGQITDEMAEHLMTLAYDNGINLFDTAEVYAAGKAEVVLGNIIKKKGWRRSSLVITTKIFWGGKAETERGLSRKHIIEGLKASLERLQLEYVDVVFANRPDPNTPMEEIVRAMTHVINQGMAMYWGTSRWSSMEIMEAYSVARQFNLIPPICEQAEYHMFQREKVEVQLPELFHKIGVGAMTWSPLACGIVSGKYDSGIPPYSRASLKGYQWLKDKILSEEGRRQQAKLKELQAIAERLGCTLPQLAIAWCLRNEGVSSVLLGASNAEQLMENIGAIQVLPKLSSSIVHEIDSILGNKPYSKKDYRS
B2: ΔKvβ2(39-367) (other)
chain: YRNLGKSGLRVSCLGLGTWVTFGGQITDEMAEHLMTLAYDNGINLFDTAEVYAAGKAEVVLGNIIKKKGWRRSSLVITTKIFWGGKAETERGLSRKHIIEGLKASLERLQLEYVDVVFANRPDPNTPMEEIVRAMTHVINQGMAMYWGTSRWSSMEIMEAYSVARQFNLIPPICEQAEYHMFQREKVEVQLPELFHKIGVGAMTWSPLACGIVSGKYDSGIPPYSRASLKGYQWLKDKILSEEGRRQQAKLKELQAIAERLGCTLPQLAIAWCLRNEGVSSVLLGASNAEQLMENIGAIQVLPKLSSSIVHEIDSILGNKPYSKKDYRS
B3: Kvβ1 (a.a. 1-401) (other)
chain: MQVSIACTEHNLKSRNGEDRLLSKQSSTAPNVVNAARAKFRTVAIIARSLGTFTPQHHISLKESTAKQTGMKYRNLGKSGLRVSCLGLGTWVTFGGQISDEVAERLMTIAYESGVNLFDTAEVYAAGKAEVILGSIIKKKGWRRSSLVITTKLYWGGKAETERGLSRKHIIEGLKGSLQRLQLEYVDVVFANRPDSNTPMEEIVRAMTHVINQGMAMYWGTSRWSAMEIMEAYSVARQFNMIPPVCEQAEYHLFQREKVEVQLPELYHKIGVGAMTWSPLACGIISGKYGNGVPESSRASLKCYQWLKERIVSEEGRKQQNKLKDLSPIAERLGCTLPQLAVAWCLRNEGVSSVLLGSSTPEQLIENLGAIQVLPKMTSHVVNEIDNILRNKPYSKKDYRS
B4: ΔKvβ2(39-316) (other)
chain: YRNLGKSGLRVSCLGLGTWVTFGGQITDEMAEHLMTLAYDNGINLFDTAEVYAAGKAEVVLGNIIKKKGWRRSSLVITTKIFWGGKAETERGLSRKHIIEGLKASLERLQLEYVDVVFANRPDPNTPMEEIVRAMTHVINQGMAMYWGTSRWSSMEIMEAYSVARQFNLIPPICEQAEYHMFQREKVEVQLPELFHKIGVGAMTWSPLACGIVSGKYDSGIPPYSRASLKGYQWLKDKILSEEGRRQQAKLKELQAIAERLGCTLPQLAIAWCLRNEG

The target in test [1] is T6, COOH-terminal domain of RCK4 (CRCK4, a.a. 566-651) (rat, UniProt P15385). Description: yeast two-hybrid, growth on medium lacking histidine; similar results with a β-galactosidase assay. An excerpt: (§1) FIG. 6A depicts the results of a yeast two-hybrid assay wherein YGH1 yeast cells were transformed by different pairwise combinations of the two-hybrid constructs that express either fusion proteins of the DNA binding domain of GAL4 or the transcription activation domain of GAL4. […] In the middle panel, the transformants carrying the two different fusion proteins were first selected by dextrose synthetic drop-out medium with no supplement of leucine and tryptophan (SD, −leu, −trp, +his) to ensure that in different combinations the transformants have both plasmids. In the lower panel, identical numbers of cells in each combination were also dotted on the same medium without histidine (SD, −leu, −trp, −his). The transformants were allowed to grow at 30° C. for 65 hours.
To begin the test, the NH_2-terminal domain and COOH-terminal domain of Kv1.4 (RCK4) were subcloned. These truncated cytoplasmic fragments, i.e., the NH_2-terminal domain (a.a. 1–306) and COOH-terminal domain (a.a. 566–651), were expressed individually with Kvβ2 as GAL4 fusion proteins. […]
Similar results were obtained using a β-galactosidase assay (data not shown). Thus, like Kvβ1, Kvβ2 was determined to interact with the NH_2-terminal domain of the Kv1.4 α-subunit.

The target of test [2] is T1, NH2-terminal domain of rshal1 (a.a. …). The experiment in a line: yeast two-hybrid, growth on medium lacking histidine.
From the text: as §1, with “6B” for “6A”
(§2) In the case of Kvβ1, its subfamily-specific association with the NH_2-terminal domains of Kv1 α-subunits is essential for the Kvβ1-mediated inactivation. […] What is not known, however, is whether the failure to detect the Kv2.1-Kvβ2 complex is due to the incompatibility of these two subunits to interact or their limited overlapping expression in vivo. To test the specificity of the Kvβ2-α (interaction, pairwise combinations of Kvβ2 and the NH_2-terminal domains of eight different α-subunits were analyzed in the yeast two hybrid system. The eight α-subunits included were: ShB (Kamb et al., *Cell*, 50, 405–413 (1987); Pongs et al., *EMBO J.*, 7, (1988); Tempel et al., *Science*, 237, 770–775, (1987), Shabll, Shaw2, and Shal2 from Drosophila (Butler et al., *Nucleic Acids Res.*, 18, 2173–2174 (1990); Kv1.4 (or RCK4) (Stuhmer et al., *EMBO J.*, 8, 3235–3244 (1989), Kv2.1 (or DPK1) (Frech et al., *Nature*, 340, 642–645 (1989), Kv3.1 (or NGK2b) (Yokoyama et al., *FEBS Lett.*, 259, 37–42 (1989), and Kv4.2(or rShal1) (Baldwin et al., *Neuron*, 7, 471–483 (1991); Roberds et al., *Proc. Natl. Acad. Sci. USA*, 88, 1798–1802 (1991)) from rat.

For test [3], the target named is T2, NH2-terminal domain of NGK2b (a.a. …). The test is described as above.
From the text: as §1, with “6B” for “6A”
as §2

For test [4], the target named is T3, NH2-terminal domain of Drosophila Shal2 …. Described as above.
From the text: as §1, with “6B” for “6A”
as §2

Test [5] has as its target T4, NH2-terminal domain of DRK1 (a.a. …). The description is as above.
From the text: as §1, with “6B” for “6A”
as §2

Test [6] concerns the target T5, NH2-terminal domain of Drosophila Shaw2 …. The test is described as above.
From the text: as §1, with “6B” for “6A”
as §2

In test [7] the target is T7, GAL4 transcription activation (TA) domain alone (Saccharomyces cerevisiae (strain ATCC …, UniProt P04386)). Description: yeast two-hybrid control (FIG. 6A, No. 1), growth on medium lacking histidine.
From the text: as §1
To begin the test, the NH_2-terminal domain and COOH-terminal domain of Kv1.4 (RCK4) were subcloned. These truncated cytoplasmic fragments, i.e., the NH_2-terminal domain (a.a. 1–306) and COOH-terminal domain (a.a. 566–651), were expressed individually with Kvβ2 as GAL4 fusion proteins. Using this methodology, if Kvβ2 were to interact with one or both truncated Kv1.4 fragments, the resultant interaction(s) would confer the ability upon the yeast transformants to grow on synthetic medium lacking histidine. Table 2 below defines the conditions of the yeast two-hybrid system in FIG. 6A.

In the next test the target is ShBΔ(6-46) (Drosophila, UniProt P08510). Description: cell-based or functional assay.
The test “Kvβ1 (a.a. 1-401)” has as its target B3. Description: cell-based or functional assay.
The target of test [8] is T6, COOH-terminal domain of RCK4 (CRCK4, …). Description: yeast two-hybrid, growth on medium lacking histidine.
From the text: as §1, with “6B” for “6A”
as §2

Test [9] concerns the target GAL4 DNA binding (DB) domain alone (Saccharomyces cerevisiae (strain ATCC …, UniProt P04386)). Description: yeast two-hybrid control, growth on medium lacking histidine. The source says: (§3) Figure 2: FIG. 2 depicts the results of a yeast two-hybrid assay wherein YGH1 yeast cells were transformed by different pairwise combinations of the two-hybrid constructs that express either fusion proteins of the DNA binding domain of GAL4 or the transcription activation domain of GAL4. […] In the middle panel, the transformants carrying the two different fusion proteins were first selected by dextrose synthetic drop-out medium with no supplement of leucine and tryptophan (SD, −leu, −trp, +his) to ensure that in different combinations the transformants have both plasmids. In the lower panel, the identical number of cells in each combination were also dotted on the same medium without histidine (SD, −leu, −trp, −his). The transformants were allowed to grow at 30° C. for 65 hours.
(§4) Cytoplasmic NH_2— and COOH— terminal domains of different α-subunits were subcloned and expressed as fusion proteins of the GAL4 DNA binding (DB) domain. Kvβ1 was expressed as a fusion protein of either the GAL4 DNA binding (DB) domain or transcription activation (TA) domain. […] When Kvβ1 was coexpressed with the NH_2-terminal domain of RCK4 (NRCK4) (a.a. 1–306; an α-subunit sensitive to Kvβ1-mediated inactivation), the yeast transformants grew on a selective medium (FIG. 2, No. 1).

In test [10] the target is T7, GAL4 transcription activation (TA) …. The description is as above.
From the text: as §3, §4

B1: the binding result in test [1], in test [2], in test [3], in test [4], in test [5] and in test [6] was “no binding” in each case. Further, in [7], the binding result is “no binding”.

B2: the “percent of recorded cells with fast inactivation, whole cell voltage clamp recording of transfected COS cells” value with ShBΔ(6-46) and in the test with Kvβ1 (a.a. 1-401) was 22.5 % of cells each time.

Take B3: the binding result in [2], in test [3], in test [5], in test [8], in test [9] and in [10] was “no binding” throughout.

Take B4: the “percent of recorded cells with fast inactivation, whole cell voltage clamp recording of transfected COS cells” value with ShBΔ(6-46) and with Kvβ1 (a.a. 1-401) was 61 % of cells each time.
